B1: CBL-interacting serine/threonine-protein kinase 24 (Arabidopsis thaliana (Mouse-ear cress)), Q9LDI3 (parent)
chain: MTKKMRRVGKYEVGRTIGEGTFAKVKFARNTDTGDNVAIKIMAKSTILKNRMVDQIKREISIMKIVRHPNIVRLYEVLASPSKIYIVLEFVTGGELFDRIVHKGRLEESESRKYFQQLVDAVAHCHCKGVYHRDLKPENLLLDTNGNLKVSDFGLSALPQEGVELLRTTCGTPNYVAPEVLSGQGYDGSAADIWSCGVILFVILAGYLPFSETDLPGLYRKINAAEFSCPPWFSAEVKFLIHRILDPNPKTRIQIQGIKKDPWFRLNYVPIRAREEEEVNLDDIRAVFDGIEGSYVAENVERNDEGPLMMNAFEMITLSQGLNLSALFDRRQDFVKRQTRFVSRREPSEIIANIEAVANSMGFKSHTRNFKTRLEGLSSIKAGQLAVVIEIYEVAPSLFMVDVRKAAGETLEYHKFYKKLCSKLENIIWRATEGIPKSEILRTITF

Variants of: B1
Conditions: with vatb1_arath VHA-B1, P11574
Chain of vatb1_arath VHA-B1, P11574 (P11574 whole entry): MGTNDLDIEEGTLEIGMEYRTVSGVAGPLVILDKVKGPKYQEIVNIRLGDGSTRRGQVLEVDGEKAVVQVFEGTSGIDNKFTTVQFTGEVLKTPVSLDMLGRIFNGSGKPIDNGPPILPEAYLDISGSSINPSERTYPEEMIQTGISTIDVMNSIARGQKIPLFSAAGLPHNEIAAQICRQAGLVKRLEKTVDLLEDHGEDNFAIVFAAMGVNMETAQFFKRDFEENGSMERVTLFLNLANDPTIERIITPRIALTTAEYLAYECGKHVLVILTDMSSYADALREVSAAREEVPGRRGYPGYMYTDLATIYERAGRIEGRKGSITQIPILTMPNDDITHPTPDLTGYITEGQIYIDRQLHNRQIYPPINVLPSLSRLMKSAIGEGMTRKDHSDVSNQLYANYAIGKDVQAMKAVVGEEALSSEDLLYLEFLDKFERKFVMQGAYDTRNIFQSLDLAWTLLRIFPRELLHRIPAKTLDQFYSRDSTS

effect of a mutation on the interaction | Variant
decreasing interaction | K40N

Variants of: B1
Conditions: with vatb2_arath VHA-B2, Q9SZN1
Chain of vatb2_arath VHA-B2, Q9SZN1 (Q9SZN1 whole entry): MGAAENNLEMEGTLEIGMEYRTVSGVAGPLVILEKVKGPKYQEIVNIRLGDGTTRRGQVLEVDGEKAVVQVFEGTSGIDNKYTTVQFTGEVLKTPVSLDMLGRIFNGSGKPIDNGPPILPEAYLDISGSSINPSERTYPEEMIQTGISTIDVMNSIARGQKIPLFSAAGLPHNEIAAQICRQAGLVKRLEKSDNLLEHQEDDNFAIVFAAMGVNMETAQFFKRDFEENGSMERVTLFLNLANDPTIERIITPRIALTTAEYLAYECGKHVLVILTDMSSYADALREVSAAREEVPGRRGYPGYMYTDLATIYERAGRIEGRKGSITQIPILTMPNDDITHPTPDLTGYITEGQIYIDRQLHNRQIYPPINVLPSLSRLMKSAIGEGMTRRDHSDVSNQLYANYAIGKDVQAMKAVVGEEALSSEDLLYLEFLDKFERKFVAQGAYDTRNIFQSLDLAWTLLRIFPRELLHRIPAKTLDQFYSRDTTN

effect of a mutation on the interaction | Variant
decreasing interaction | K40N

Reference: IntAct's records for PubMed 17875927
